Measured values from patent publication US20150266974A1 (RINAT NEUROSCIENCE, published 2015).

Experiments:
mouse PCSK9 [1] = molecular target: T1, mouse PCSK9 (mouse, UniProt Q80W65 35-694, limits assumed); experiment: SPR Biacore 3000, captured IgG, mPCSK9 injected, pH 7.4
T1 construct: also called mPCSK9; msPCK9
Description: (§1) These antibodies were expressed and purified for determination of their KD at 7.4 and their KD ratio of pH5.5/pH 7.4, as measured on a surface plasmon resonance Biacore 3000 biosensor equipped with a research-grade sensor chip using HBS-EP running buffer (Biacore AB, Uppsala, Sweden—now GE Healthcare). Rabbit polyclonal anti-Ms IgGs were amine-coupled at saturating levels onto the chip using a standard N-hydroxysuccinimide/ethyldimethylaminopropyl carbodiimide (NHS/EDC) chemistry. The buffer was switched to HBS-EP+1 mg/mL BSA+1 mg/mL CM-dextran. Full-length PCSK9 IgGs were diluted to about 15 μg/mL and captured for 1 min at 5 μL/min to give levels of about 500 RU per flow cell, leaving one blank to serve as a reference channel. […] Dissociation was monitored for 5 min. The chip was regenerated after the last injection of each titration with two 30 sec pulses of 100 mM phosphoric acid. Buffer cycles provided blanks for double-referencing the data, which were then fit globally to a simple binding model using Biaevaluation software v.4.1. Affinities were deduced from the quotient of the kinetic rate constants (KD=koff/kₒₙ).

mouse PCSK9 [2] = molecular target: T1, mouse PCSK9; experiment: SPR Biacore 3000, captured IgG, mPCSK9 injected, pH 5.5
Description: as §1

human PCSK9 [3] = molecular target: T2, human PCSK9 (human, UniProt Q8NBP7 31-692, limits assumed); experiment: SPR Biacore 3000, captured IgG, hPCSK9 injected, pH 5.5
T2 construct: also called hPCSK9; huPCSK9
Description: as §1

human PCSK9 [4] = molecular target: T2, human PCSK9; experiment: SPR Biacore 3000, captured IgG, hPCSK9 injected, pH 7.4
Description: as §1

human PCSK9 [5] = molecular target: T2, human PCSK9; experiment: SPR Biacore 3000, KD at pH 5.5 over KD at pH 7.4
Description: as §1

mouse PCSK9 [6] = molecular target: T1, mouse PCSK9; experiment: SPR Biacore 3000, KD at pH 5.5 over KD at pH 7.4
Description: as §1

T1 sequence (Q80W65 35-694 limits assumed): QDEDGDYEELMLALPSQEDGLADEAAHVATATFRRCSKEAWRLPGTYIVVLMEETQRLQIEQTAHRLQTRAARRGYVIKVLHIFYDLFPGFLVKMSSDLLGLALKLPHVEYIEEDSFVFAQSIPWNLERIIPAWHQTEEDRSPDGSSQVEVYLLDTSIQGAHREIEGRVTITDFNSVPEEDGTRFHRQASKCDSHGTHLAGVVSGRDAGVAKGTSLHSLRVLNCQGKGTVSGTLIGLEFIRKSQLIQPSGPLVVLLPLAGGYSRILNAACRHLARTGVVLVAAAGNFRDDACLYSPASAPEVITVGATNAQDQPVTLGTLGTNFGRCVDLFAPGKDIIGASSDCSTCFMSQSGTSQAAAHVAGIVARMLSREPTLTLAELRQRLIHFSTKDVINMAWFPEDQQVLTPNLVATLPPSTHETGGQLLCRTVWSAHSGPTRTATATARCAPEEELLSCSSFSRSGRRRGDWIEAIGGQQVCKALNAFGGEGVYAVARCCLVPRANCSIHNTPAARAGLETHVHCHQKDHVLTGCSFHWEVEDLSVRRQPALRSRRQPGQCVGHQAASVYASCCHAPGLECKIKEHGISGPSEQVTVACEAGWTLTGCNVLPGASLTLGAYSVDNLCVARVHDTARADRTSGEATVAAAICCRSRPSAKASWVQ
T2 sequence (Q8NBP7 31-692 limits assumed): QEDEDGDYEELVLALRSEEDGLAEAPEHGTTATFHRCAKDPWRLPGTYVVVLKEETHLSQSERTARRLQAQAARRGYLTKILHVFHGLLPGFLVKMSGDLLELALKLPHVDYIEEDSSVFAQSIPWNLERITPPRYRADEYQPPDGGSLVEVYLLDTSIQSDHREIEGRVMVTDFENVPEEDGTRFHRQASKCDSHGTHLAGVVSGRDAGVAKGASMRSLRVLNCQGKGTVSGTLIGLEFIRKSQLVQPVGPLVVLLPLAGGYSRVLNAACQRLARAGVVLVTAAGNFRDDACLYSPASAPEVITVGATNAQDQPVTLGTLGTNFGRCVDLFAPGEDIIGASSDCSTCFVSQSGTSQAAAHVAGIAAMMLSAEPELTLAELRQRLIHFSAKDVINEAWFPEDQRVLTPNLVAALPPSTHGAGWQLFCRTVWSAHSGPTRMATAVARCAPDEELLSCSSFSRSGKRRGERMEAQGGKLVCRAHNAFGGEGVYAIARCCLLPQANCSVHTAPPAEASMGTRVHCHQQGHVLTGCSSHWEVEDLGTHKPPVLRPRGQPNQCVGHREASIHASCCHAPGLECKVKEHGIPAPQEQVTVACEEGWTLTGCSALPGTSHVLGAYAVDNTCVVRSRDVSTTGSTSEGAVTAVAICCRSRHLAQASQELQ

Binder	Kd (mouse PCSK9 [1]) [nM]	koff (mouse PCSK9 [1]) [s⁻¹]	kon (mouse PCSK9 [1]) [M⁻¹ s⁻¹]	Kd (mouse PCSK9 [2]) [nM]	koff (mouse PCSK9 [2]) [s⁻¹]	kon (mouse PCSK9 [2]) [M⁻¹ s⁻¹]	Kd (human PCSK9 [3]) [nM]	koff (human PCSK9 [3]) [s⁻¹]	kon (human PCSK9 [3]) [M⁻¹ s⁻¹]	Kd (human PCSK9 [4]) [nM]	koff (human PCSK9 [4]) [s⁻¹]	kon (human PCSK9 [4]) [M⁻¹ s⁻¹]	KD ratio pH 5.5/7.4 (human PCSK9 [5])	KD ratio pH 5.5/7.4 (mouse PCSK9 [6])
5L1721H23_6L3H3 (antibody, V domains shown, Tested as full-length IgG; also called heavy UC-H5H23-6H3, light UC-H5L1721-6L3) VH: QVQLVQSGAEVKKPGASVKVSCKASGYTFTSYYMHWVRQAPGQGLEWMGEIHPSGGRTNYNEKFKSRVTMTRDTSTSTVYMELSSLRSEDTAVYYCARERPLYASDLWGQGTTVTVSS VL: DIQMTQSPSSLSASVGDRVTITCKASQDVHTAVAWYQQKPGKAPKLLIYHASYRYTGVPSRFSGSGSGTDFTFTISSLQPEDIATYYCQQRYSLWRTFGQGTKLEIK	8.1	0.000516	63700	117	0.0187	160000								
5L1721H23 (antibody, V domains shown, Triple histidine mutant of h5A10; Only CDRs printed; Full-length IgG) VH: QVQLVQSGAEVKKPGASVKVSCKASGYTFTSYYMHWVRQAPGQGLEWMGEIHPSGGRTNYNEKFKSRVTMTRDTSTSTVYMELSSLRSEDTAVYYCARERPLYAMDYWGQGTTVTVSS VL: DIQMTQSPSSLSASVGDRVTITCKASQDVHTAVAWYQQKPGKAPKLLIYHASYRYTGVPSRFSGSGSGTDFTFTISSLQPEDIATYYCQQRYSTPRTFGQGTKLEIK	23	0.00141	61200	576	0.0588	102000	144	0.0179	124000	13	0.000399	31700	11.1	25
5L1721H23_6H3 (antibody, V domains shown, Only CDRs printed; Full-length IgG) VH: QVQLVQSGAEVKKPGASVKVSCKASGYTFTSYYMHWVRQAPGQGLEWMGEIHPSGGRTNYNEKFKSRVTMTRDTSTSTVYMELSSLRSEDTAVYYCARERPLYASDLWGQGTTVTVSS VL: DIQMTQSPSSLSASVGDRVTITCKASQDVHTAVAWYQQKPGKAPKLLIYHASYRYTGVPSRFSGSGSGTDFTFTISSLQPEDIATYYCQQRYSTPRTFGQGTKLEIK	8	0.000899	113000	111	0.0341	307000	55	0.00772	141000	7.3	0.000273	37400	7.5	13.9
5L1724H23 (antibody, V domains shown, Triple histidine mutant of h5A10; Only CDRs printed; Full-length IgG) VH: QVQLVQSGAEVKKPGASVKVSCKASGYTFTSYYMHWVRQAPGQGLEWMGEIHPSGGRTNYNEKFKSRVTMTRDTSTSTVYMELSSLRSEDTAVYYCARERPLYAMDYWGQGTTVTVSS VL: DIQMTQSPSSLSASVGDRVTITCKASQDVHTAVAWYQQKPGKAPKLLIYSASHRYTGVPSRFSGSGSGTDFTFTISSLQPEDIATYYCQQRYSTPRTFGQGTKLEIK				74	0.0202	273000	39	0.00793	203000					
5L1724H23_6L3 (antibody, V domains shown, Only CDRs printed; Full-length IgG) VH: QVQLVQSGAEVKKPGASVKVSCKASGYTFTSYYMHWVRQAPGQGLEWMGEIHPSGGRTNYNEKFKSRVTMTRDTSTSTVYMELSSLRSEDTAVYYCARERPLYAMDYWGQGTTVTVSS VL: DIQMTQSPSSLSASVGDRVTITCKASQDVHTAVAWYQQKPGKAPKLLIYSASHRYTGVPSRFSGSGSGTDFTFTISSLQPEDIATYYCQQRYSLWRTFGQGTKLEIK	41	0.00218	53100	756	0.121	160000	540	0.0407	75400	22	0.00079	35900	24.5	18.4
6L1721 (antibody, V domains shown, L1L3-based mutant; Tested as full-length IgG) VH: QVQLVQSGAEVKKPGASVKVSCKASGYTFTSYYMHWVRQAPGQGLEWMGEISPFGGRTNYNEKFKSRVTMTRDTSTSTVYMELSSLRSEDTAVYYCARERPLYASDLWGQGTTVTVSS VL: DIQMTQSPSSLSASVGDRVTITCRASQGIHSALAWYQQKPGKAPKLLIYHASYRYTGVPSRFSGSGSGTDFTFTISSLQPEDIATYYCQQRYSLWRTFGQGTKLEIK	2.6	0.000228	88000	5.2	0.00177	338000	5.1	0.00084	166000	2.2	7.08e-05	32900	2.3	2
6L1721H23 (antibody, V domains shown, L1L3-based mutant; Full-length IgG) VH: QVQLVQSGAEVKKPGASVKVSCKASGYTFTSYYMHWVRQAPGQGLEWMGEIHPFGGRTNYNEKFKSRVTMTRDTSTSTVYMELSSLRSEDTAVYYCARERPLYASDLWGQGTTVTVSS VL: DIQMTQSPSSLSASVGDRVTITCRASQGIHSALAWYQQKPGKAPKLLIYHASYRYTGVPSRFSGSGSGTDFTFTISSLQPEDIATYYCQQRYSLWRTFGQGTKLEIK	7.2	0.000469	64800	36	0.00729	204000	24	0.00261	110000	4	0.000201	50200	6	5
5L1721H23_6L3 (antibody, V domains shown, Tested as full-length IgG; also called heavy UC-H5H23, light UC-H5L1721-6L3) VH: QVQLVQSGAEVKKPGASVKVSCKASGYTFTSYYMHWVRQAPGQGLEWMGEIHPSGGRTNYNEKFKSRVTMTRDTSTSTVYMELSSLRSEDTAVYYCARERPLYAMDYWGQGTTVTVSS VL: DIQMTQSPSSLSASVGDRVTITCKASQDVHTAVAWYQQKPGKAPKLLIYHASYRYTGVPSRFSGSGSGTDFTFTISSLQPEDIATYYCQQRYSLWRTFGQGTKLEIK	14	0.000676	47500	408	0.0428	105000	257	0.0166	64500	6.9	0.000214	30900	37.2	29.1
5L1724H23_6L3H3 (antibody, V domains shown, Only CDRs printed; Full-length IgG) VH: QVQLVQSGAEVKKPGASVKVSCKASGYTFTSYYMHWVRQAPGQGLEWMGEIHPSGGRTNYNEKFKSRVTMTRDTSTSTVYMELSSLRSEDTAVYYCARERPLYASDLWGQGTTVTVSS VL: DIQMTQSPSSLSASVGDRVTITCKASQDVHTAVAWYQQKPGKAPKLLIYSASHRYTGVPSRFSGSGSGTDFTFTISSLQPEDIATYYCQQRYSLWRTFGQGTKLEIK	13	0.000827	63100	125	0.0263	211000	83	0.00789	95500	15	0.000342	22300	5.5	9.6
5L1724H35 (antibody, V domains shown, Triple histidine mutant of h5A10; Only CDRs printed; Full-length IgG) VH: QVQLVQSGAEVKKPGASVKVSCKASGYTFTSYYMHWVRQAPGQGLEWMGEINPSGGRTNYNEKFKSRVTMTRDTSTSTVYMELSSLRSEDTAVYYCARERPLHAMDYWGQGTTVTVSS VL: DIQMTQSPSSLSASVGDRVTITCKASQDVHTAVAWYQQKPGKAPKLLIYSASHRYTGVPSRFSGSGSGTDFTFTISSLQPEDIATYYCQQRYSTPRTFGQGTKLEIK	35	0.00153	44300											
6L21H2335 (antibody, V domains shown) VH: QVQLVQSGAEVKKPGASVKVSCKASGYTFTSYYMHWVRQAPGQGLEWMGEIHPFGGRTNYNEKFKSRVTMTRDTSTSTVYMELSSLRSEDTAVYYCARERPLHASDLWGQGTTVTVSS VL: DIQMTQSPSSLSASVGDRVTITCRASQGISSALAWYQQKPGKAPKLLIYHASYRYTGVPSRFSGSGSGTDFTFTISSLQPEDIATYYCQQRYSLWRTFGQGTKLEIK	191	0.0172	89900	451	0.237	526000	363	0.238	655000	126	0.00733	58100	2.9	2.4
